Results reported in publication PMC4400361, “Oligomerization of the Polycystin-2 C-terminal Tail and Effects on Its Ca^2+-binding Properties*” (The Journal of Biological Chemistry, 2015).

Experiments:
[1] = biological target: the molecule itself; assay: SEC-MALS; Superdex 200 10/30 GL, SEC-UV/LS/RI; Ca2+-bound holo state, 20 mM CaCl2 in the buffer; 20 mM imidazole in the buffer for HPC2 Cterm; three injected amounts for HPC2 Cterm and SUPC2 Ccore
[2] = biological target: the molecule itself; assay: SEC-MALS; Superdex 200 10/30 GL, SEC-UV/LS/RI; Ca2+-free apo state, no added CaCl2, 1 mM EDTA; 20 mM imidazole in the buffer for HPC2 Cterm; three injected amounts

B1: human polycystin-2 C-terminal construct, which includes the full-length cytoplasmic tail (HPC2 Cterm) (domain or fragment, UniProt Q13563 704-968, looked up)
chain: IRKGYHKALVKLKLKKNTVDDISESLRQGGGKLNFDELRQDLKGKGHTDAEIEAIFTKYDQDGDQELTEHEHQQMRDDLEKEREDLDLDHSSLPRPMSSRSFPRSLDDSEEDDDEDSGHSSRRRGSISSGVSYEEFQVLVRRVDRMEHSIGSIVSKIDAVIVKLEIMERAKLKRREVLGRLLDGVAEDERLGRDSEIHREQMERLVREELERWESDDAASQISHGLGTPVGLNGQPRPRSSRPSSSQSTEGMEGAGGNGSSNVHV
notes: polycystin-2 (PC2), human, residues I704-V968, numbered on full-length human PC2; Printed monomer mass 32.2 kDa; also called C-terminal cytoplasmic tail of human PC2; HPC Cterm
stoichiometry N [1]: 3 | stoichiometry N [2]: 3
